Measured values: patent publication US10646600B2, “HER2 polypeptides useful for imaging and monitoring tumors and cancers” (GE HEALTHCARE LIMITED, priority 2013, dated 2020)
Read-outs that look alike come from different tables or passages of the source.

Tests used:
[1] = Metabolic stability, plasma radio-HPLC; format: in vivo, mice; settings: 3.7 MBq i.v., 10, 30 and 60 minutes post injection
Protocol: At 10, 30 and 60 minute post injection, mice were exsanguinated via cardiac puncture and blood removed for centrifugation. Plasma was obtained and kept on ice for analysis of radioactive metabolites by HPLC.

MCF7-HER2 = assay: Biodistribution, MCF7-HER2 tumor; format: in vivo, mice; settings: 60 min
From the text: Mice were sacrificed at different time points by exsanguination.

[2] = tested on: HER2 negative and p95HER2 transfected cell lines; assay: In vitro uptake assay, HER2 negative and p95HER2 transfected cell lines; format: cell-based, human; settings: across all HER2 negative and p95HER2 transfected lines, 60 minutes
From the text: MCF7-vector (piRES), MCF7-p95HER2 and MCF7-HER2 cells were a kind gift of Jose Baselga's laboratory (17). MCF7 clones, MDA-MB-231 (ATCC, Manassas, Va.), MDA-MB-361 (Sigma-Aldrich), SKBR-3 (ATCC) and SKOV-3 (Sigma-Aldrich) cells were maintained in DMEM. AGS (Sigma-Aldrich), HGC-27 (Sigma-Aldrich), NCI-N87 (ATCC) and OE-33 (ATCC) cells were maintained in RPMI (Sigma-Aldrich). A431 cells (Sigma-Aldrich) were maintained in MEM Eagle medium (Sigma-Aldrich). Growth media were supplemented with 10% FCS (Lonza, Basel, Switzerland), glutamine and antibiotics (both Invitrogen, Paisley, United Kingdom). A431 cells were additionally supplemented with 1% non-essential amino acids. All cells were cultured at 37° C. in a humidified atmosphere containing 5% CO2.
For baseline uptake in HER2 positive or negative lineages, 3×10^5 cells were seeded in complete media in 12-well plates (Corning, Tewksbury Mass.) and allowed to recover overnight. Cells were washed twice with serum-free medium and pulsed with 370 KBq in 500 μL serum-free medium for one h. […]
Cells were washed with PBS, trypsinized, neutralized with complete medium and centrifuged. […] The radioactivity of 100 μL lysate was counted on a Packard Cobra II gamma counter (Perkin Elmer). Radioactivity was normalized to applied radioactivity and protein content, which was determined for each sample by BCA assay (Pierce, Rockford, Ill.). […]

rat HER2 = target: T1, rat HER2 (Rattus norvegicus, UniProt P06494); assay: Surface Plasmon Resonance, rat HER2-ECD-Fc; format: binding
T1 construct: Human, rhesus and rat HER2-ECD-Fc (SINO Biological, Beijing, China, Cat. Nr: 10004-H02H, 90020-K02H, and 80079-R02H); Fc (C); purchased SINO Biological 80079-R02H
T1 sequence (P06494 23-654 limits assumed): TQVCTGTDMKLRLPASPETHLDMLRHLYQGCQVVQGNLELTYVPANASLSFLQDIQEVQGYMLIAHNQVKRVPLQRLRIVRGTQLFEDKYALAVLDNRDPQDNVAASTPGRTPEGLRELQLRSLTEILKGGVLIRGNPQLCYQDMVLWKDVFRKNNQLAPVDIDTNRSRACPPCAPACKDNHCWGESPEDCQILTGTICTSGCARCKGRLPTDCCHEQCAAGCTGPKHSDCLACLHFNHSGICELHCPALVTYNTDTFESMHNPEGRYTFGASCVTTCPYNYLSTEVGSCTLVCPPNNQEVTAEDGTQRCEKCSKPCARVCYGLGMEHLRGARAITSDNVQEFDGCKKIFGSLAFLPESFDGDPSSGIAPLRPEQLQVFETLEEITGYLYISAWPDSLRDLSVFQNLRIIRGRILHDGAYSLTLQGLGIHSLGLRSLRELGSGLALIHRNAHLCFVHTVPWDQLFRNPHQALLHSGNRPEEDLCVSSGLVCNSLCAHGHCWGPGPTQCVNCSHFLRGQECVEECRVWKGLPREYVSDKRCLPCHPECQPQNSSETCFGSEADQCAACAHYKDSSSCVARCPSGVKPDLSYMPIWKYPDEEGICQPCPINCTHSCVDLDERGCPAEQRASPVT
Protocol: To characterize the affinity of [^19F]GE-226[SEQ ID NO 1] to HER2 protein, Surface Plasmon Resonance studies were conducted. Human, rhesus and rat HER2-ECD-Fc (SINO Biological, Beijing, China, Cat. Nr: 10004-H02H, 90020-K02H, and 80079-R02H), as well as human HER2-ECD-Fc-6×His (R&D Systems, Minneapolis, Minn., Cat. Nr: 1129-ER) and p95HER2 ECD-Fc-6×His (Syngene, Cambridge, United Kingdom) were diluted with 50 mM sodium acetate pH 4.5 (Biacore (GE Healthcare, Buckinghamshire, UK) coupling buffer) to a final concentration of 10 μg/mL. Antigen coupling to Biacore sensor chip CMS (Cat. Nr: BR-1005-30) was done according to amine coupling protocol from the instrument manual (Syngene). HBS-EP buffer (10 mM HEPES pH 7.4, 150 mM NaCl, 3 mM EDTA and 0.005% surfactant P20; GE Healthcare, Little Chalfont, United Kingdom, Cat. Nr: BR-1006-69) was used as running buffer and as solvent for the substances. The affinity studies were performed using a Biacore T100 (GE Healthcare). [^19F]GE-226 was diluted in HBS-EP buffer to 50 nM, 25 nM, 12.5 nM, 6.25 nM, 3.125 nM, 1.56 nM, 0.78 nM, 0.39 nM, 0.195 nM, 0.097 nM, 0.049 nM and 0 nM. The flow cells of the first chip comprised of blank, human HER2-ECD-Fc-6×His, p95HER2-ECD-Fc-6×His batch I and p95HER2-ECD-Fc-6×His batch II. The flow cells on the second chip contained blank, human HER2-ECD-Fc, rhesus HER2-ECD-Fc and rat HER2 ECD-Fc. The immobilization of the proteins was validated with protein-A (Sigma-Aldrich, St. Louis, Mo., Cat. Nr: P6031) and anti-human IgG antibody (Perkin Elmer, Waltham, Mass., Cat. Nr: NEF803001EA). [^19F]GE-226[SEQ ID NO 1] was pumped in duplicate over cells in randomized order for 60 sec at 50 μL/min flow rate followed by 120 sec of HBS-EP to monitor dissociation. This was followed by regeneration of the chip with 50 mM sodium hydroxide for 30 sec at 30 μL/min flow rate followed by 60 sec run of HBS-EP to stabilize the surface. Kinetic calculations were performed using Langmuir 1:1 binding model and simultaneous calculation of association and dissociation phase.

interaction with rat HER2 (words) (rat HER2)	interaction with rat HER2 (words) (rat HER2; listed as 19F-Affibody analogue)	interaction with rat HER2 (words) (rat HER2; listed as GE-226)	Substance	metabolic stability [1]	metabolic stability ([1]; listed as tracer)	Tissue uptake, MCF7-HER2 (MCF7-HER2) [% ID/g tissue]	background uptake [2]
			[^18F]GE-226: HER2-binding 18F-radiolabelled Affibody molecule ZHER2:2891	metabolically stable	stable in vivo	11.06 ± 3.31	1.2±0.5 % applied radioactivity per mg protein
did not interact	did not interact	not	[^19F]GE-226: cold unlabeled non-radioactive 19F analogue of the tracer, used for SPR and blocking				
